The record followed here is publication doi:10.1101/751974 (bioRxiv, 2019).

For assay [1], the target named is MBP-MCM8-9 complex, amylose bead-bound (human, UniProt Q9NXL9-1;Q9UJA3-1). The assay is described as follows: pull-down.
In assay [2] the target is recombinant MCM8-9 complex, purified (human, UniProt Q9NXL9-1;Q9UJA3-1). The assay is described as follows: native gel or EMSA. Background: A gel shift assay detects complexes by their altered migration in electrophoresis.
Sequence of recombinant MCM8-9 complex, purified (Q9NXL9 whole entry, chain 1 of 2): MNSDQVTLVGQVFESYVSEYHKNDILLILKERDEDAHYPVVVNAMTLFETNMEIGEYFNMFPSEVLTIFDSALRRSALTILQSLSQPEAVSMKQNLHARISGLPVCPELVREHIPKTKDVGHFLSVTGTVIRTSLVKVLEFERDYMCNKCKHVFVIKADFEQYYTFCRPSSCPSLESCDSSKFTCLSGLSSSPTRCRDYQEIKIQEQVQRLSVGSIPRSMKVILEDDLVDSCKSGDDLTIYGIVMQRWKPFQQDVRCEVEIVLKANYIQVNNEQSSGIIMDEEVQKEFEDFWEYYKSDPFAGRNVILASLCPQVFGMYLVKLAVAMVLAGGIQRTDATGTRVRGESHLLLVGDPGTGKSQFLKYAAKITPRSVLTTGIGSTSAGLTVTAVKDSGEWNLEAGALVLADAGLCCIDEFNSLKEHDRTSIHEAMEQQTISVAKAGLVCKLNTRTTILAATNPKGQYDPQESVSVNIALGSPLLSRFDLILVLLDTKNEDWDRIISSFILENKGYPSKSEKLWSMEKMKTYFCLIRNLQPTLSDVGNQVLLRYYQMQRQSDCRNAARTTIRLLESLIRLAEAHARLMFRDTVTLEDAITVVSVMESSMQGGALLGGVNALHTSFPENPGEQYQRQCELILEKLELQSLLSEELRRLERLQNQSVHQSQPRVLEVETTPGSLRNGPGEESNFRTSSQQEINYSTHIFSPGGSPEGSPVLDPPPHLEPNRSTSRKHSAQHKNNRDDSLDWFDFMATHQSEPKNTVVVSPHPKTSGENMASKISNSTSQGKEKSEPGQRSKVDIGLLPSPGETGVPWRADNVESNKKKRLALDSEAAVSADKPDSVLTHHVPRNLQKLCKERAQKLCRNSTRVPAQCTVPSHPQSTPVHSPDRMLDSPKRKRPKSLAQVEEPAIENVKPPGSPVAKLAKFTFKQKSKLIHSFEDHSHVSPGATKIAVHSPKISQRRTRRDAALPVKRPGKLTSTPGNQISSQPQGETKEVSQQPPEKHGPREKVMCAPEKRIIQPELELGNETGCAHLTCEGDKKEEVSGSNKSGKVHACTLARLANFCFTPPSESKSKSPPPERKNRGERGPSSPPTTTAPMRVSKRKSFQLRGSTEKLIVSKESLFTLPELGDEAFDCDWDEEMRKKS
Sequence of recombinant MCM8-9 complex, purified (Q9UJA3 whole entry, chain 2 of 2): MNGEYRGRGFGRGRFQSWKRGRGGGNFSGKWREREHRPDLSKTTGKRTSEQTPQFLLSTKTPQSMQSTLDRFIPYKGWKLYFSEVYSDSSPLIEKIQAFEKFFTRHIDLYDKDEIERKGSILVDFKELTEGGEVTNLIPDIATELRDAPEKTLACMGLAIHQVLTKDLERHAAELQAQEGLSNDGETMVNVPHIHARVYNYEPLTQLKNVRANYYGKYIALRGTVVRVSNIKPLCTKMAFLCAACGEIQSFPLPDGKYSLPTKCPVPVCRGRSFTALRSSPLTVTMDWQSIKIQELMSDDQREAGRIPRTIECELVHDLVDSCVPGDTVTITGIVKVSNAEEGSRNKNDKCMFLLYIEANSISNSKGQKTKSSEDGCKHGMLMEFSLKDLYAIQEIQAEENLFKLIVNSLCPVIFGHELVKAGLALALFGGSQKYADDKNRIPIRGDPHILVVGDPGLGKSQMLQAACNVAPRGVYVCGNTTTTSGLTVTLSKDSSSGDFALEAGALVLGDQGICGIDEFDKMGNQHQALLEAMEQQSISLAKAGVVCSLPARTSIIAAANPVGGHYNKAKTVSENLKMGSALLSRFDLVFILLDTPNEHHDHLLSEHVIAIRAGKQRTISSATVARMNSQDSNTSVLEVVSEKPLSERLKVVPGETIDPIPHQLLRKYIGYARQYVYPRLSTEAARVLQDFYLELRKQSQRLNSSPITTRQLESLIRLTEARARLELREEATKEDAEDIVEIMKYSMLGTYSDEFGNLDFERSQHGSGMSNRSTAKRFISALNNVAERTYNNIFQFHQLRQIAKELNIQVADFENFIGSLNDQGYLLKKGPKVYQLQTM

Sequence of MBP-MCM8-9 complex, amylose bead-bound (Q9NXL9 whole entry, chain 1 of 2): as the sequence (Q9NXL9 whole entry, chain 1 of 2) above
Sequence of MBP-MCM8-9 complex, amylose bead-bound (Q9UJA3 whole entry, chain 2 of 2): as the sequence (Q9UJA3 whole entry, chain 2 of 2) above

B1: MCM8IP-FLAG WT (natural protein)
chain: MACSLQKLFAVEEEFEDEDFLSAVEDAENRFTGSLPVNAGRLRPVSSRPQETVQAQSSRLLLLHPTAPSEALGLPDLDLCLPASSTPSADSRPSCIGAAPLRPVSTSSSWIGNQRRVTVTEVLRETARPQSSALHPLLTFESQQQQVGGFEGPEQDEFDKVLASMELEEPGMELECGVSSEAIPILPAQQREGSVLAKKARVVDLSGSCQKGPVPAIHKAGIMSAQDESLDPVIQCRTPRPPLRPGAVGHLPVPTALTVPTQQLHWEVCPQRSPVQALQPLQAARGTIQSSPQNRFPCQPFQSPSSWLSGKAHLPRPRTPNSSCSTPSRTSSGLFPRIPLQPQAPVSSIGSPVGTPKGPQGALQTPIVTNHLVQLVTAASRTPQQPTHPSTRAKTRRFPGPAGILPHQQSGRSLEDIMVSAPQTPTHGALAKFQTEIVASSQASVEEDFGRGPWLTMKSTLGLDERDPSCFLCTYSIVMVLRKAALKQLPRNKVPNMAVMIKSLTRSTMDASVVFKDPTGEMQGTVHRLLLETCQNELKPGSVLLLKQIGVFSPSLRNHYLNVTPNNLVHIYSPDSGDGSFLKPSQPFPKDSGSFQHDVAAKPEEGFRTAQNLEAEASPEEELPEADDLDGLLSELPEDFFCGTSS
For B1, the binding result in assay [1] and in assay [2] was “binds” each time.
